Columns and labels:
Details in all cases: protein: recombinant; label: fluorescein-dT at T8; single-chain dumbbell, 18 bp with central nick, two tetraloops
[1] = target: T1, PARP-1 F1+F2 (24-kDa DBD) (Homo sapiens, UniProt P09874 1-214); assay: fluorescence anisotropy; 0 mM NaCl; tight site (KD1); FA: 50 mM Tris-HCl pH 7, 150 uM ZnSO4, 4 mM DTT, 0-200 mM NaCl, 25 C, 10 nM DNA (mutants 25 nM DNA, 25 mM NaCl); EMSA: 50 mM Tris-HCl pH 7.4, 150 uM ZnSO4, 4 mM DTT, 10% glycerol, RT incubation, gel at 4 C; NMR complexes: 50 mM Tris pH 7.0, 150 uM ZnSO4, 4 mM DTT, 37 C
T1 sequence (P09874 1-214): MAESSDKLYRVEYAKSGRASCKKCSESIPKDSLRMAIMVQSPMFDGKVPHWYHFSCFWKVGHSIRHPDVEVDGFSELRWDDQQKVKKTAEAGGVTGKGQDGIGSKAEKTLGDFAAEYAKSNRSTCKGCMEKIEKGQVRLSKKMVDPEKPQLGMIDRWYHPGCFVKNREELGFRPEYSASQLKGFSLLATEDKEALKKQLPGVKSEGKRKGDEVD

PARP-1 F2 = PARP-1 F2 (Homo sapiens, UniProt P09874 103-214); assay: fluorescence anisotropy; 75; 50 mM Tris-HCl pH 7.0, 150 uM ZnSO4, 4 mM DTT, 25 C; NaCl 0-200 mM (T2, as in cof; 10 nM DNA) or 25 mM (T3 mutants; 25 nM DNA)
Sequence of PARP-1 F2 (P09874 103-214): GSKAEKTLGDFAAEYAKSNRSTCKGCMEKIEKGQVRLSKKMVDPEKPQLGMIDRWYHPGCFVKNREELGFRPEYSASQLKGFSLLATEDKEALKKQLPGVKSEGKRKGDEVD

[2] = target: T1, PARP-1 F1+F2 (24-kDa DBD); assay: as above
PARP-1 F2 G135D = PARP-1 F2 G135D (Homo sapiens, UniProt P09874 103-214, G135D); assay: fluorescence anisotropy; 25 mM NaCl, one-site fit; 50 mM Tris-HCl pH 7.0, 150 uM ZnSO4, 4 mM DTT, 25 C; NaCl 0-200 mM (T2, as in cof; 10 nM DNA) or 25 mM (T3 mutants; 25 nM DNA)
Sequence of PARP-1 F2 G135D (P09874 103-214 G135D): as the sequence (P09874 103-214) above, with G33D counted along it

PARP-1 F2 K131I = PARP-1 F2 K131I (Homo sapiens, UniProt P09874 103-214, K131I); assay: as above
Sequence of PARP-1 F2 K131I (P09874 103-214 K131I): as the sequence (P09874 103-214) above, with K29I counted along it

PARP-1 F2 K131I/G135D = PARP-1 F2 K131I/G135D (Homo sapiens, UniProt P09874 103-214, K131I;G135D); assay: as above
Sequence of PARP-1 F2 K131I/G135D (P09874 103-214 K131I/G135D): as the sequence (P09874 103-214) above, with K29I, G33D counted along it

PARP-1 F2 K119I = PARP-1 F2 K119I (Homo sapiens, UniProt P09874 103-214, K119I); assay: as above
Sequence of PARP-1 F2 K119I (P09874 103-214 K119I): as the sequence (P09874 103-214) above, with K17I counted along it

PARP-1 F2 S120G = PARP-1 F2 S120G (Homo sapiens, UniProt P09874 103-214, S120G); assay: as above
Sequence of PARP-1 F2 S120G (P09874 103-214 S120G): as the sequence (P09874 103-214) above, with S18G counted along it

PARP-1 F2 K141I/K142I = PARP-1 F2 K141I/K142I (Homo sapiens, UniProt P09874 103-214, K141I;K142I); assay: as above
Sequence of PARP-1 F2 K141I/K142I (P09874 103-214 K141I/K142I): as the sequence (P09874 103-214) above, with K39I, K40I counted along it

PARP-1 F2 R138I = PARP-1 F2 R138I (Homo sapiens, UniProt P09874 103-214, R138I); assay: as above
Sequence of PARP-1 F2 R138I (P09874 103-214 R138I): as the sequence (P09874 103-214) above, with R36I counted along it

PARP-1 F2 K197I = PARP-1 F2 K197I (Homo sapiens, UniProt P09874 103-214, K197I); assay: as above
Sequence of PARP-1 F2 K197I (P09874 103-214 K197I): as the sequence (P09874 103-214) above, with K95I counted along it

PARP-1 F2 K134I = PARP-1 F2 K134I (Homo sapiens, UniProt P09874 103-214, K134I); assay: as above
Sequence of PARP-1 F2 K134I (P09874 103-214 K134I): as the sequence (P09874 103-214) above, with K32I counted along it

[3] = target: T1, PARP-1 F1+F2 (24-kDa DBD); assay: fluorescence anisotropy; 200; 50 mM Tris-HCl pH 7.0, 150 uM ZnSO4, 4 mM DTT, 25 C; NaCl 0-200 mM (T2, as in cof; 10 nM DNA) or 25 mM (T3 mutants; 25 nM DNA)

B1: 44-nt nicked dumbbell, 5'-phosphate, fluorescein-dT (structured_DNA)
DNA: CGGTCGATCGTAAGATCGACCGGCGCTGGAGCTTGCTCCAGCGC
modifications: 5'-phosphate
With B1 the Kd [1] was 5.7 nM, the Kd (PARP-1 F2) was 218 nM and the Kd [2] was 37 nM. It also gave a Kd (PARP-1 F2 G135D) of 1710 nM, a Kd (PARP-1 F2 K131I) of 1570 nM and a Kd (PARP-1 F2 K131I/G135D) of 3750 nM. For the same binder, the Kd (PARP-1 F2 K119I) was 4550 nM, the Kd (PARP-1 F2 S120G) was 2430 nM and the Kd (PARP-1 F2 K141I/K142I) was 3930 nM. The Kd (PARP-1 F2 R138I) was 19800 nM, the Kd (PARP-1 F2 K197I) was 664 nM and the Kd (PARP-1 F2 K134I) was 3330 nM. For the same binder, the Kd [3] was 45.4 nM.

From publication PMC3094755, “The DNA-Binding Domain of Human PARP-1 Interacts with DNA Single-Strand Breaks as a Monomer through Its Second Zinc Finger”
